Source: patent US20200270335A1

Molecular target: LRP6 of Super TopFlash (STF, HEK293) cells (UniProt O75581)
Assay: cell-based or functional assay

Sequence of LRP6 of Super TopFlash (STF, HEK293) cells (O75581 20-1613 limits assumed): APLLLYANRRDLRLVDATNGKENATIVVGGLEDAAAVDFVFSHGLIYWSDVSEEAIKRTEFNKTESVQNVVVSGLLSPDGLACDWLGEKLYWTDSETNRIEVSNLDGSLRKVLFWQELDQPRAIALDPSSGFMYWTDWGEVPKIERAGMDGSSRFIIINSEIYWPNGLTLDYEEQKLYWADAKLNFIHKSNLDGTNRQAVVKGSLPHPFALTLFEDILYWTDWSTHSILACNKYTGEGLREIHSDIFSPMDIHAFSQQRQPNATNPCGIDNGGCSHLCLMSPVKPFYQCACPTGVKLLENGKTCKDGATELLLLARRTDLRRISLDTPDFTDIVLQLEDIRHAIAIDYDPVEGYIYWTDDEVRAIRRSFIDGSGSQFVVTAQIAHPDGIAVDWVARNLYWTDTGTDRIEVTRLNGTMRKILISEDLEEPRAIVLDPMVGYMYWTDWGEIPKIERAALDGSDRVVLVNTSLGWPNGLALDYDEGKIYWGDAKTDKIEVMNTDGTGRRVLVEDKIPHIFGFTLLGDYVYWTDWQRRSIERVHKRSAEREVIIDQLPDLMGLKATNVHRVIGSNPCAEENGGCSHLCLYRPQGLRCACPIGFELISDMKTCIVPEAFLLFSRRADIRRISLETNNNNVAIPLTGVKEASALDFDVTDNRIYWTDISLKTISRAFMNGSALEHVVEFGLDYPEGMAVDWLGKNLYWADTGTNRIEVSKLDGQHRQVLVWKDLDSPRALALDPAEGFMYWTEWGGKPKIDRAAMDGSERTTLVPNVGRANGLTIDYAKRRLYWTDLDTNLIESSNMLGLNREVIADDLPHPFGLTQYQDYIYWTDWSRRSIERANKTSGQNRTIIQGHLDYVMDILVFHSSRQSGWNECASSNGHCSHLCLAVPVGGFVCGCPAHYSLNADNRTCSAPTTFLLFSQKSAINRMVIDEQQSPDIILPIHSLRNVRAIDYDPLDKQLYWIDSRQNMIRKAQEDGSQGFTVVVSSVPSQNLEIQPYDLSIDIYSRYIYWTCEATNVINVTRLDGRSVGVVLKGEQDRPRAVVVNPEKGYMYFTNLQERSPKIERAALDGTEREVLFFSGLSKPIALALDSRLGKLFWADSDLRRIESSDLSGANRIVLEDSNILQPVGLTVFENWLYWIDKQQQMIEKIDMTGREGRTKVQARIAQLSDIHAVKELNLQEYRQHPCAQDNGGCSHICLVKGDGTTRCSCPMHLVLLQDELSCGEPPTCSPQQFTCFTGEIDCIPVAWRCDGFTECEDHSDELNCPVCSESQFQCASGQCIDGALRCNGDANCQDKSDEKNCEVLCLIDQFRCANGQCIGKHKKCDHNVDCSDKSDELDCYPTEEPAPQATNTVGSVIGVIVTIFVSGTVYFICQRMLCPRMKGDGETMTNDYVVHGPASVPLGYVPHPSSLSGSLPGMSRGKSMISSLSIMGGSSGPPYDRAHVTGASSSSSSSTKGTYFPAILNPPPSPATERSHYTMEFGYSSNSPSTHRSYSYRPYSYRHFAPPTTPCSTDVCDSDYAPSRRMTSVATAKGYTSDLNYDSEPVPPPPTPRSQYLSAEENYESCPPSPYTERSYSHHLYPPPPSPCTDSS

ACE 448 HSA-DKK2 full length (C1+C2) (from UniProt P02768 25-609; Q9UBU2 34-259) (ligand)
activity in the Super Top Flash assay against the HSA-DKK2 C2 proteins: 10 fold
